Measurements: US20260275304A1, “METHODS AND COMPOSITIONS FOR GLYPHOSATE TOLERANCE IN PLANTS” (Monsanto Technology LLC, priority 2023, published 2026)

Tested on: S. cerevisiae strain sKR-024
Assay: Mock selection for glyphosate resistance, 50:50 inoculum, flow cytometry
Format: cell-based, Saccharomyces cerevisiae
Procedure: Yeast cultures were either started directly from a random colony or from freezer stock and picked in triplicate into appropriate selective media, either YSC-Ura, YSC-Leu, and YSC-Ura-Leu. Cultures were grown for 48 hours at 30° C. to saturation phase. Fully grown yeast cultures were then diluted back to OD 0.01 and allowed to grow for 48 hours at 30° C. in a 96 deep-well plate shaker. Fluorescence was then analyzed via flow cytometry (BD Accuri C6 Flow Cytometer, BD Biosciences) at an excitation of 588 nm and emission of 633 nm for mKate2 RFP. Yeast populations of interest were then gated according to relative size and complexity using a logarithmic plot of side scatter (SSC) and forward scatter (FSC) and spectra were generated outlining RFP fluorescence intensity vs. cell count. FlowJo software was used to analyze all flow cytometry data.
To do so, a mock selection for glyphosate resistance was achieved by transforming wild-type EPSPS into sKR-024 containing an RFP cassette and TIPS into sKR-024 without an RFP cassette to enable flow cytometry tracking of population distributions. A 50:50 starting inoculum of each strain was cultured in yeast minimal media containing 0, 2.5, 5, 7.5, or 10 mM glyphosate.

B1: TIPS: Zea mays EPSPS double mutant T102I and P106S, SEQ ID NO:9; positive control (protein)
chain: AGAEEIVLQPIKEISGTVKLPGSKSLSNRILLLAALSEGTTVVDNLLNSEDVHYMLGALRTLGLSVEADKAAKRAVVVGCGGKFPVEDSKEEVQLFLGNAGIAMRSLTAAVTAAGGNATYVLDGVPRMRERPIGDLVVGLKQLGADVDCFLGTDCPPVRVNGIGGLPGGKVKLSGSISSQYLSALLMAAPLALGDVEIEIIDKLISIPYVEMTLRLMERFGVKAEHSDSWDRFYIKGGQKYKSPKNAYVEGDASSASYFLAGAAITGGTVTVEGCGTTSLQGDVKFAEVLEMMGAKVTWTETSVTVTGPPREPFGRKHLKAIDVNMNKMPDVAMTLAVVALFADGPTAIRDVASWRVKETERMVAIRTELTKLGASVEEGPDYCIITPPEKLNVTAIDTYDDHRMAMAFSLAACAEVPVAIRDPGCTRKTFPDYFDVLSTFVKN
modifications: Zea mays
notes: positive control
cell count after addition of glyphosate (0, 2.5, 5, 7.5 or 10 mM glyphosate): consistent cell count across multiple levels of glyphosate | cell count in the absence of glyphosate (0 mM glyphosate): consistently lower cell count of TIPS relative to wild-type EPSPS
